From US20230183366A1

Biological target: Cohesin-human OX40 ectodomain protein (human) (UniProt P43489)
Test: SPR, antibody captured on protein A, soluble cohesin-human OX40 ectodomain injected

Chain of UniProt P43489 (P43489 26-211 limits assumed, form in doubt): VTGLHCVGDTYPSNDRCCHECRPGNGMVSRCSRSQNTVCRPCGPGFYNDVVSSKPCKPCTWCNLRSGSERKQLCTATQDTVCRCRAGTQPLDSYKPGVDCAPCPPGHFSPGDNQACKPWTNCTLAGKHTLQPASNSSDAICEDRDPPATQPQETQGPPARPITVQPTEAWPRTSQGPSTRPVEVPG

Kd: 131 nM
bracketed ratio of KD relative to Anti-OX40 IgG1: 1
bracketed ratio of Ka relative to Anti-OX40 IgG1: 1
bracketed ratio of kd relative to Anti-OX40 IgG1: 1
koff: 0.0019 s⁻¹
kon: 14000 M⁻¹ s⁻¹
B1: humanized anti OX40 Ab24 IgG1 (antibody, V domains shown)
VH: QVQLQESGPGLVKPSQTLSLTCAVYGGSFSSGYWNWIRKHPGKGLEYIGYISYNGITYHNPSLKSRITINRDTSKNQYSLQLNSVTPEDTAVYYCARYKYDYDGGHAMDYWGQGTLVTVSS
VL: DIQMTQSPSSLSASVGDRVTITCRASQDISNYLNWYQQKPGKAPKLLIYYTSKLHSGVPSRFSGSGSGTDYTLTISSLQPEDFATYYCQQGSALPWTFGQGTKVEIKR
